Test [1] has as its target Tet repressor protein from class B [TetR(B)] (Escherichia coli) (UniProt P04483). The test is described as follows: cell-based or functional assay.
Another test concerns the target TetR(B/D)188-208 (UniProt P0ACT4). The test is described as follows: cell-based or functional assay.

With “PepBs1-TrxA (N-terminal fusion of pepBs1 to Escherichia coli thioredoxin A) (from UniProt P0AA25 2-109)”, in test [1], the factor of induction of β-galactosidase activity at 60 µM IPTG was found to be 40 fold and the induction of β-galactosidase activity against the C-terminal fusion TrxA-pepBs1 (fold higher than the C-terminal fusion) was found to be 3. In the test with TetR(B/D)188-208, “SbmC(C)-pepBs1 fusion protein (from UniProt P33012 1-157)” returned a β-galactosidase activity at 60 µM IPTG of 4 fold.

For the substance “TrxA-pepBs1 (C-terminal fusion of pepBs1 to Escherichia coli thioredoxin A) (from UniProt P0AA25 2-109)”, the factor of induction of β-galactosidase activity at 60 µM IPTG in test [1] was 14 fold.

Values taken from US20080020377A1.
